Source: paper PMC12547689

What was measured:
[1] = target: GFP-diS1 (sfGFP H148C) (Aequorea victoria) [GFP: P42212]; test: fluorescence emission ratio (CRO–O^− : CRO–OH excitation); percentage of dimer after incubation with CuSO4 (1 mM; CuCl2 gave no discernible change for GFP-diS2), 50 mM Tris–HCl pH 8; monomer to disulphide-linked dimer
[2] = target: GFP-diS1 (sfGFP H148C) (Aequorea victoria) [GFP: P42212]; test: fluorescence emission ratio (CRO–O^− : CRO–OH excitation); dimerisation kinetics with 1 mM CuSO4, 50 mM Tris–HCl pH 8, plate reader, excitation 388 nm and 483 nm, emission 516 nm; second order A + A → A2; apparent KD, estimated, non-equilibrium (covalent disulphide dimer); monomer to dimer
[3] = target: GFP-diS2 (sfGFP H148C V206F) (Aequorea victoria) [GFP: P42212]; test: fluorescence emission ratio (CRO–O^− : CRO–OH excitation); percentage of dimer after incubation with CuSO4 (1 mM; CuCl2 gave no discernible change for GFP-diS2), 50 mM Tris–HCl pH 8; monomer to disulphide-linked dimer
[4] = target: GFP-diS2 (sfGFP H148C V206F) (Aequorea victoria) [GFP: P42212]; test: fluorescence emission ratio (CRO–O^− : CRO–OH excitation); dimerisation kinetics with 1 mM CuSO4, 50 mM Tris–HCl pH 8, plate reader, excitation 388 nm and 483 nm, emission 516 nm; second order A + A → A2; apparent KD, estimated, non-equilibrium (covalent disulphide dimer); monomer to dimer

Substance	percent dimer after 1 h with CuSO4 [1]	Kd [2]	percent dimer with CuSO4 [3]	Kd [4]
GFP-diS1 (sfGFP H148C) (from UniProt P42212 1-238)	55%	> 25 µM		
GFP-diS2 (sfGFP H148C V206F) (from UniProt P42212 1-238)			80%	4.6 µM
